These results are taken from patent publication US20210388110A1 (published 2021).

The target of this test is T1, soluble human GPC3 (human, UniProt P51654 25-563, limits assumed).
T1 construct: soluble human GPC3 as analyte; also called glypican 3
Briefly: SPR (Biacore), soluble human GPC3. (In general: SPR reads the build-up and loss of mass on a sensor chip optically.)

T1 sequence (P51654 other isoform, or with tags, fused parts or gaps limits assumed, form in doubt): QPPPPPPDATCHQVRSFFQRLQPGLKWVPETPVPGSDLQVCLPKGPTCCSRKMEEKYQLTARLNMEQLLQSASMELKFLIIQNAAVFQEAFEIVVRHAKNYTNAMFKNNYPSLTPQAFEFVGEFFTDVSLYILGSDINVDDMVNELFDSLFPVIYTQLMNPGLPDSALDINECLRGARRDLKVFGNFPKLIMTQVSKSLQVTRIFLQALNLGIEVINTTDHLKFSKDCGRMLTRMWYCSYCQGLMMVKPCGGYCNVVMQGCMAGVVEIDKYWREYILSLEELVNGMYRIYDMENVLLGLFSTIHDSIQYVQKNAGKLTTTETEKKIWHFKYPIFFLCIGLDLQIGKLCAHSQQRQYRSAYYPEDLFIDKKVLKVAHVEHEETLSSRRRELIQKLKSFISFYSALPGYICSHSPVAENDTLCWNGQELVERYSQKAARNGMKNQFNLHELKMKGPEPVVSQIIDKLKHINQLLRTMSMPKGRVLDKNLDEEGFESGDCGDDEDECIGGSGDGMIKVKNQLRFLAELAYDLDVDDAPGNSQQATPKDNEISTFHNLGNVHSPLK

B1: H0610-G1dh/none-Hi-Kn010G3/L0238-k0 (antibody, human IgG1, kappa)
heavy: not shown
chain: EPKSSDKTHTCPPCPAPELLGGPSVFLFPPKPKDTLMISRTPEVTCVVVDVSHEDPEVKFNWYVDGVEVHNAKTKPREEQYNSTYRVVSVLTVLHQDWLNGKEYKCKVSNKALPAPIEKTISKAKGQPREPQVCTLPPSRDELTKNQVSLWCLVKGFYPSDIAVEWESNGQPENNYKTTPPVLDSDGSFFLYSKLTVDKSRWQQGNVFSCSVMHEALHNRYTQKSLSLSP
light: DIVMTQSPLSLPVTPGEPASISCRSSEPPVHSNRNTYLHWYQQKPGQAPRLLIYKVSNRFSGVPDRFSGSGSGTDFTLKISRVEAEDVGVYYCYQGTQVPYTFGQGTKLEIKRTVAAPSVFIFPPSDEQLKSGTASVVCLLNNFYPREAKVQWKVDNALQSGNSQESVTEQDSKDSTYSLSSTLTLSKADYEKHKVYACEVTHQGLSSPVTKSFNRGEC
notes: single-arm (one Fab)
For orientation: Kd means the equilibrium constant for the complex coming apart. Read a low Kd as a tighter complex. In turn, B1 yielded a Kd of 0.637 nM.

B2: H0610-G1dh/none-Hi-Kn010G3/L0243-k0 (antibody, human IgG1, kappa)
heavy: not shown
chain: EPKSSDKTHTCPPCPAPELLGGPSVFLFPPKPKDTLMISRTPEVTCVVVDVSHEDPEVKFNWYVDGVEVHNAKTKPREEQYNSTYRVVSVLTVLHQDWLNGKEYKCKVSNKALPAPIEKTISKAKGQPREPQVCTLPPSRDELTKNQVSLWCLVKGFYPSDIAVEWESNGQPENNYKTTPPVLDSDGSFFLYSKLTVDKSRWQQGNVFSCSVMHEALHNRYTQKSLSLSP
light: DIVMTQSPLSLPVTPGEPASISCRSSEPPVHSNRNTYLHWYQQKPGQAPRLLIYKVSNRFRGVPDRFSGSGSGTDFTLKISRVEAEDVGVYYCGQGTQVPYTFGQGTKLEIKRTVAAPSVFIFPPSDEQLKSGTASVVCLLNNFYPREAKVQWKVDNALQSGNSQESVTEQDSKDSTYSLSSTLTLSKADYEKHKVYACEVTHQGLSSPVTKSFNRGEC
notes: single-arm (one Fab)
Molecule B2 gave a Kd of 0.649 nM.

B3: H0610-G1dh/none-Hi-Kn010G3/L0249-k0 (antibody, human IgG1, kappa)
heavy: not shown
chain: EPKSSDKTHTCPPCPAPELLGGPSVFLFPPKPKDTLMISRTPEVTCVVVDVSHEDPEVKFNWYVDGVEVHNAKTKPREEQYNSTYRVVSVLTVLHQDWLNGKEYKCKVSNKALPAPIEKTISKAKGQPREPQVCTLPPSRDELTKNQVSLWCLVKGFYPSDIAVEWESNGQPENNYKTTPPVLDSDGSFFLYSKLTVDKSRWQQGNVFSCSVMHEALHNRYTQKSLSLSP
light: DIVMTQSPLSLPVTPGEPASISCRPSQSPVHSNRNTYIQWYQQKPGQAPRLLIYKVSNRFSGVPDRFSGSGSGTDFTLKISRVEAEDVGVYYCSQGTQVPYTFGQGTKLEIKRTVAAPSVFIFPPSDEQLKSGTASVVCLLNNFYPREAKVQWKVDNALQSGNSQESVTEQDSKDSTYSLSSTLTLSKADYEKHKVYACEVTHQGLSSPVTKSFNRGEC
notes: single-arm (one Fab)
For the molecule B3, binding was put at a Kd of 0.00686 nM.

B4: H0610-G1dh/none-Hi-Kn010G3/L0259-k0 (antibody, human IgG1, kappa)
heavy: not shown
chain: EPKSSDKTHTCPPCPAPELLGGPSVFLFPPKPKDTLMISRTPEVTCVVVDVSHEDPEVKFNWYVDGVEVHNAKTKPREEQYNSTYRVVSVLTVLHQDWLNGKEYKCKVSNKALPAPIEKTISKAKGQPREPQVCTLPPSRDELTKNQVSLWCLVKGFYPSDIAVEWESNGQPENNYKTTPPVLDSDGSFFLYSKLTVDKSRWQQGNVFSCSVMHEALHNRYTQKSLSLSP
light: DIVMTQSPLSLPVTPGEPASISCRSSQSPVHSNRNTYIHWYQQKPGQAPRLLIYKVSNRFSGVPDRFSGSGSGTDFTLKISRVEAEDVGVYYCTQGTQVPYTFGQGTKLEIKRTVAAPSVFIFPPSDEQLKSGTASVVCLLNNFYPREAKVQWKVDNALQSGNSQESVTEQDSKDSTYSLSSTLTLSKADYEKHKVYACEVTHQGLSSPVTKSFNRGEC
notes: single-arm (one Fab)
B4 displayed a Kd of 0.334 nM.

B5: H0610-G1dh/none-Hi-Kn010G3/L0240-k0 (antibody, human IgG1, kappa)
heavy: not shown
chain: EPKSSDKTHTCPPCPAPELLGGPSVFLFPPKPKDTLMISRTPEVTCVVVDVSHEDPEVKFNWYVDGVEVHNAKTKPREEQYNSTYRVVSVLTVLHQDWLNGKEYKCKVSNKALPAPIEKTISKAKGQPREPQVCTLPPSRDELTKNQVSLWCLVKGFYPSDIAVEWESNGQPENNYKTTPPVLDSDGSFFLYSKLTVDKSRWQQGNVFSCSVMHEALHNRYTQKSLSLSP
light: DIVMTQSPLSLPVTPGEPASISCRSSESPVHSNRNTYLHWYQQKPGQAPRLLIYKVSNRFSGVPDRFSGSGSGTDFTLKISRVEAEDVGVYYCYQGTQVPYTFGQGTKLEIKRTVAAPSVFIFPPSDEQLKSGTASVVCLLNNFYPREAKVQWKVDNALQSGNSQESVTEQDSKDSTYSLSSTLTLSKADYEKHKVYACEVTHQGLSSPVTKSFNRGEC
notes: single-arm (one Fab)
For the molecule B5, the equilibrium dissociation constant (Kd) was 0.848 nM.

B6: H0610-G1dh/none-Hi-Kn010G3/L0262-k0 (antibody, human IgG1, kappa)
heavy: not shown
chain: EPKSSDKTHTCPPCPAPELLGGPSVFLFPPKPKDTLMISRTPEVTCVVVDVSHEDPEVKFNWYVDGVEVHNAKTKPREEQYNSTYRVVSVLTVLHQDWLNGKEYKCKVSNKALPAPIEKTISKAKGQPREPQVCTLPPSRDELTKNQVSLWCLVKGFYPSDIAVEWESNGQPENNYKTTPPVLDSDGSFFLYSKLTVDKSRWQQGNVFSCSVMHEALHNRYTQKSLSLSP
light: DIVMTQSPLSLPVTPGEPASISCRSSQPPVHSNRNTYLHWYQQKPGQAPRLLIYKVSNRFSGVPDRFSGSGSGTDFTLKISRVEAEDVGVYYCAQGTQVPYTFGQGTKLEIKRTVAAPSVFIFPPSDEQLKSGTASVVCLLNNFYPREAKVQWKVDNALQSGNSQESVTEQDSKDSTYSLSSTLTLSKADYEKHKVYACEVTHQGLSSPVTKSFNRGEC
notes: single-arm (one Fab)
For the molecule B6, the affinity, expressed as Kd, was 0.211 nM.

B7: H0610-G1dh/none-Hi-Kn010G3/L0239-k0 (antibody, human IgG1, kappa)
heavy: not shown
chain: EPKSSDKTHTCPPCPAPELLGGPSVFLFPPKPKDTLMISRTPEVTCVVVDVSHEDPEVKFNWYVDGVEVHNAKTKPREEQYNSTYRVVSVLTVLHQDWLNGKEYKCKVSNKALPAPIEKTISKAKGQPREPQVCTLPPSRDELTKNQVSLWCLVKGFYPSDIAVEWESNGQPENNYKTTPPVLDSDGSFFLYSKLTVDKSRWQQGNVFSCSVMHEALHNRYTQKSLSLSP
light: DIVMTQSPLSLPVTPGEPASISCRSSESPVHSNRNTYLHWYQQKPGQAPRLLIYKVSNRFRGVPDRFSGSGSGTDFTLKISRVEAEDVGVYYCGQGTQVPYTFGQGTKLEIKRTVAAPSVFIFPPSDEQLKSGTASVVCLLNNFYPREAKVQWKVDNALQSGNSQESVTEQDSKDSTYSLSSTLTLSKADYEKHKVYACEVTHQGLSSPVTKSFNRGEC
notes: single-arm (one Fab)
As for B7, binding was characterised by a dissociation constant (Kd) of 0.874 nM.

B8: H0610-G1dh/none-Hi-Kn010G3/L0242-k0 (antibody, human IgG1, kappa)
heavy: not shown
chain: EPKSSDKTHTCPPCPAPELLGGPSVFLFPPKPKDTLMISRTPEVTCVVVDVSHEDPEVKFNWYVDGVEVHNAKTKPREEQYNSTYRVVSVLTVLHQDWLNGKEYKCKVSNKALPAPIEKTISKAKGQPREPQVCTLPPSRDELTKNQVSLWCLVKGFYPSDIAVEWESNGQPENNYKTTPPVLDSDGSFFLYSKLTVDKSRWQQGNVFSCSVMHEALHNRYTQKSLSLSP
light: DIVMTQSPLSLPVTPGEPASISCRSSESPVHSNRNTYIHWYQQKPGQAPRLLIYKVSNRFSGVPDRFSGSGSGTDFTLKISRVEAEDVGVYYCYQGTQVPYTFGQGTKLEIKRTVAAPSVFIFPPSDEQLKSGTASVVCLLNNFYPREAKVQWKVDNALQSGNSQESVTEQDSKDSTYSLSSTLTLSKADYEKHKVYACEVTHQGLSSPVTKSFNRGEC
notes: single-arm (one Fab)
For B8, binding was characterised by a dissociation constant (Kd) of 1.19 nM.

B9: H0610-G1dh/none-Hi-Kn010G3/L0246-k0 (antibody, human IgG1, kappa)
heavy: not shown
chain: EPKSSDKTHTCPPCPAPELLGGPSVFLFPPKPKDTLMISRTPEVTCVVVDVSHEDPEVKFNWYVDGVEVHNAKTKPREEQYNSTYRVVSVLTVLHQDWLNGKEYKCKVSNKALPAPIEKTISKAKGQPREPQVCTLPPSRDELTKNQVSLWCLVKGFYPSDIAVEWESNGQPENNYKTTPPVLDSDGSFFLYSKLTVDKSRWQQGNVFSCSVMHEALHNRYTQKSLSLSP
light: DIVMTQSPLSLPVTPGEPASISCRSSQSPVHSNRNTYIQWYQQKPGQAPRLLIYKVSNRFSGVPDRFSGSGSGTDFTLKISRVEAEDVGVYYCSQGTQVPYTFGQGTKLEIKRTVAAPSVFIFPPSDEQLKSGTASVVCLLNNFYPREAKVQWKVDNALQSGNSQESVTEQDSKDSTYSLSSTLTLSKADYEKHKVYACEVTHQGLSSPVTKSFNRGEC
notes: single-arm (one Fab)
As to B9, binding was characterised by a dissociation constant (Kd) of 0.00121 nM.

B10: H0610-G1dh/none-Hi-Kn010G3/L0261-k0 (antibody, human IgG1, kappa)
heavy: not shown
chain: EPKSSDKTHTCPPCPAPELLGGPSVFLFPPKPKDTLMISRTPEVTCVVVDVSHEDPEVKFNWYVDGVEVHNAKTKPREEQYNSTYRVVSVLTVLHQDWLNGKEYKCKVSNKALPAPIEKTISKAKGQPREPQVCTLPPSRDELTKNQVSLWCLVKGFYPSDIAVEWESNGQPENNYKTTPPVLDSDGSFFLYSKLTVDKSRWQQGNVFSCSVMHEALHNRYTQKSLSLSP
light: DIVMTQSPLSLPVTPGEPASISCRSSQSPVHSNRNTYIQWYQQKPGQAPRLLIYKVSNRFSGVPDRFSGSGSGTDFTLKISRVEAEDVGVYYCTQGTQVPYTFGQGTKLEIKRTVAAPSVFIFPPSDEQLKSGTASVVCLLNNFYPREAKVQWKVDNALQSGNSQESVTEQDSKDSTYSLSSTLTLSKADYEKHKVYACEVTHQGLSSPVTKSFNRGEC
notes: single-arm (one Fab)
B10 gave a Kd of 0.0107 nM.

B11: H0610-G1dh/none-Hi-Kn010G3/L0248-k0 (antibody, human IgG1, kappa)
heavy: not shown
chain: EPKSSDKTHTCPPCPAPELLGGPSVFLFPPKPKDTLMISRTPEVTCVVVDVSHEDPEVKFNWYVDGVEVHNAKTKPREEQYNSTYRVVSVLTVLHQDWLNGKEYKCKVSNKALPAPIEKTISKAKGQPREPQVCTLPPSRDELTKNQVSLWCLVKGFYPSDIAVEWESNGQPENNYKTTPPVLDSDGSFFLYSKLTVDKSRWQQGNVFSCSVMHEALHNRYTQKSLSLSP
light: DIVMTQSPLSLPVTPGEPASISCRPSQSPVHSNRNTYIQWYQQKPGQAPRLLIYKVSNRFSGVPDRFSGSGSGTDFTLKISRVEAEDVGVYYCYQGTQVPYTFGQGTKLEIKRTVAAPSVFIFPPSDEQLKSGTASVVCLLNNFYPREAKVQWKVDNALQSGNSQESVTEQDSKDSTYSLSSTLTLSKADYEKHKVYACEVTHQGLSSPVTKSFNRGEC
notes: single-arm (one Fab)
On to B11, for which the Kd was determined as 0.0555 nM.

B12: H0610-G1dh/none-Hi-Kn010G3/L0258-k0 (antibody, human IgG1, kappa)
heavy: not shown
chain: EPKSSDKTHTCPPCPAPELLGGPSVFLFPPKPKDTLMISRTPEVTCVVVDVSHEDPEVKFNWYVDGVEVHNAKTKPREEQYNSTYRVVSVLTVLHQDWLNGKEYKCKVSNKALPAPIEKTISKAKGQPREPQVCTLPPSRDELTKNQVSLWCLVKGFYPSDIAVEWESNGQPENNYKTTPPVLDSDGSFFLYSKLTVDKSRWQQGNVFSCSVMHEALHNRYTQKSLSLSP
light: DIVMTQSPLSLPVTPGEPASISCRSSQPPVHSNRNTYLHWYQQKPGQAPRLLIYKVSNRFSGVPDRFSGSGSGTDFTLKISRVEAEDVGVYYCTQGTQVPYTFGQGTKLEIKRTVAAPSVFIFPPSDEQLKSGTASVVCLLNNFYPREAKVQWKVDNALQSGNSQESVTEQDSKDSTYSLSSTLTLSKADYEKHKVYACEVTHQGLSSPVTKSFNRGEC
notes: single-arm (one Fab)
B12: the Kd is 0.000352 nM.
